This assay concerns the target chondroitin sulfate proteoglycan (human) (UniProt Q6UVK1).

Substance “MEL-14 PE38-KDEL (from UniProt P11439) (scFv)” showed an IC50 cytotoxicity, A375 (Expt 2) melanoma cells (Mel14-KDEL) of 0.5 µg/mL; an IC50 cytotoxicity, A375 (Expt 3) melanoma cells (Mel14-KDEL) of 0.45 µg/mL; an IC50 cytotoxicity, D54 glioma cells (Mel14-KDEL) of 0.05 µg/mL; an IC50 cytotoxicity, D79 glioma cells (Mel14-KDEL) of 0.2 µg/mL. The substance further showed an IC50 cytotoxicity, D245 glioma cells (Mel14-KDEL) of 0.004 µg/mL; an IC50 cytotoxicity, D247 glioma cells (Mel14-KDEL) of 0.1 µg/mL; an IC50 cytotoxicity, H350 melanoma cells (Mel14-KDEL) of 0.008 µg/mL; an IC50 cytotoxicity, Malme3M melanoma cells (Mel14-KDEL) of 0.001 µg/mL. Further, the IC50 cytotoxicity, SKMel2 melanoma cells (Mel14-KDEL) is 0.036 µg/mL; the IC50 cytotoxicity, SKMel5 melanoma cells (Mel14-KDEL) is 0.06 µg/mL; the IC50 cytotoxicity, TB2620 glioma cells (Mel14-KDEL) is 0.15 µg/mL.

Substance “9.2.27 PE38-KDEL (from UniProt P11439) (scFv)” gave an IC50 cytotoxicity, A375 (Expt 2) melanoma cells (9.2.27F10) of 4.5 µg/mL; an IC50 cytotoxicity, A375 (Expt 2) melanoma cells (9.2.27F11) of 4.5 µg/mL; an IC50 cytotoxicity, A375 (Expt 3) melanoma cells (9.2.27F11) of 0.6 µg/mL; an IC50 cytotoxicity, D54 glioma cells (9.2.27F10) of 0.055 µg/mL. The IC50 cytotoxicity, D54 glioma cells (9.2.27F11) was 0.07 µg/mL; the IC50 cytotoxicity, D79 glioma cells (9.2.27F10) worked out at 0.22 µg/mL; the IC50 cytotoxicity, D79 glioma cells (9.2.27F11) was found to be 0.1 µg/mL; the IC50 cytotoxicity, D245 glioma cells (9.2.27F10) turned out to be 0.008 µg/mL. Also, the IC50 cytotoxicity, D245 glioma cells (9.2.27F11) came to 0.006 µg/mL; the IC50 cytotoxicity, D247 glioma cells (9.2.27F11) came out at 0.08 µg/mL; the IC50 cytotoxicity, H350 melanoma cells (9.2.27F10) is 0.02 µg/mL; the IC50 cytotoxicity, H350 melanoma cells (9.2.27F11) amounted to 0.02 µg/mL. The substance also came in with an IC50 cytotoxicity, Malme3M melanoma cells (9.2.27F10) of 0.018 µg/mL; an IC50 cytotoxicity, Malme3M melanoma cells (9.2.27F11) of 0.02 µg/mL; an IC50 cytotoxicity, SKMel2 melanoma cells (9.2.27F10) of 2.4 µg/mL; an IC50 cytotoxicity, SKMel2 melanoma cells (9.2.27F11) of 0.7 µg/mL. The substance further returned an IC50 cytotoxicity, SKMel5 melanoma cells (9.2.27F10) of 0.35 µg/mL; an IC50 cytotoxicity, SKMel5 melanoma cells (9.2.27F11) of 0.2 µg/mL; an IC50 cytotoxicity, TB2620 glioma cells (9.2.27F10) of 0.5 µg/mL; an IC50 cytotoxicity, TB2620 glioma cells (9.2.27F11) of 0.18 µg/mL.

These data come from patent US20100047164A1.
